For the assay, the system named is target antigen-expressing cell line. Description: Jurkat NFAT-GFP assay, coculture with target cell lines expressing the respective target antigen (summary Table 10A). It is filed as cell-based, human. Also on record: key: The signs +/−, +, 2+ etc. after the name of the cell lines indicate the relative degree of positivity on the Jurkat-NFAT-GFP assay as measured by the % GFP positive cells; +: relative degree of positivity on the Jurkat-NFAT-GFP assay as measured by the % GFP positive cells; 2+: relative degree of positivity on the Jurkat-NFAT-GFP assay as measured by the % GFP positive cells. To be noted: relative % GFP positive cells; for NFAT-GFP ASSAY Positive Cell lines: NALM6: SIR-expressing Jurkat-NFAT-GFP cells cocultured with NALM6; for NFAT-GFP ASSAY Positive Cell lines: RAJI: SIR-expressing Jurkat-NFAT-GFP cells cocultured with RAJI. The procedure, abridged:
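Jurkat cells carrying an NFAT-driven GFP reporter and lentivirally expressing a SIR were cocultured with antigen-bearing target cells (E:T ~1:2) for about 4–18 h. GFP induction read by flow cytometry as % GFP+ cells, scored positive and graded (+/−, +, 2+) against parental Jurkat-NFAT-GFP cells.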

These results are taken from patent publication US12269859B2, “Synthetic immune receptors and methods of use thereof” (Angeles Therapeutics, Inc., priority 2016, dated 2025).

B1: 102116-D01 (protein)
chain: MALPVTALLLPLALLLHAARPLEGKPIPNPLLGLDSTGSGEDLKNVFPPEVAVFEPSKAEIAHTQKATLVCLATGFYPDHVELSWWVNGKEVHSGVCTDPQPLKEQPALNDSRYCLSSRLRVSATFWQNPRNHFRCQVQFYGLSENDEWTQDRAKPVTQIVSAEAWGRADCGITSASYHQGVLSATILYEILLGKATLYAVLVSALVLMAMVKRKDSRGRAKRSGSGATNFSLLKQAGDVEENPGPTSTMALPVTALLLPLALLLHAARPQAVLTQPPSASGTPGQRVTISCSGSSSNIGSYTVSWYQQLPGTAPKFLIYSNNQRPSGVPDRFSGSKSGTSASLAISGLQSEDEADYYCAAWDDSLNGYVFGTGTKVTVLGGGGGSGGGGSGGGGSEVQLVQSGAEVKKPGESLKISCKGSGYDFTTYWIGWVRQMPGKGLEWMGIIYPGDSDTRYSPSVRGRVTISADKSINTAYLQWSSLEASDTAMYYCARMWTFSQDGWGQGTLVTVSSTREQKLISEEDGSGIQNPDPAVYQLRDSKSSDKSVCLFTDFDSQTNVSQSKDSDVYITDKCVLDMRSMDFKSNSAVAWSNKSDFACANAFNNSIIPEDTFFPSSDVPCDVKLVEKSFETDTNLNFQNLSVIGFRILLLKVAGFNLLMTLRLWSSRAKRSGSGVKQTLNFDLLKLAGDVESNPGPSRGHMTEYKPTVRLATRDDVPRAVRTLAAAFADYPATRHTVDPDRHIERVTELQELFLTRVGLDIGKVWVADDGAAVAVWTTPESVEAGAVFAEIGPRMAELSGSRLAAQQQMEGLLAPHRPKEPAWFLATVGVSPDHQGKGLGSAVVLPGVEAAERAGVPAFLETSAPRNLPFYERLGFTVTADVEVPEGPRTWCMTRKPGA
modifications: Synthetic Immune Receptor (SIR)
For B1, the “NFAT-GFP ASSAY Positive Cell lines: L363” value (SIR-expressing Jurkat-NFAT-GFP cells cocultured with L363) is given as “L363 (2+), U266”. The “NFAT-GFP ASSAY Positive Cell lines: U266” value (SIR-expressing Jurkat-NFAT-GFP cells cocultured with U266) was “(2+)”.

B2: 022817-J01 (protein)
chain: MALPVTALLLPLALLLHAARPLEGKPIPNPLLGLDSTGSGEDLKNVFPPEVAVFEPSKAEIAHTQKATLVCLATGFYPDHVELSWWVNGKEVHSGVCTDPQPLKEQPALNDSRYCLSSRLRVSATFWQNPRNHFRCQVQFYGLSENDEWTQDRAKPVTQIVSAEAWGRADCGITSASYHQGVLSATILYEILLGKATLYAVLVSALVLMAMVKRKDSRGRAKRSGSGATNFSLLKQAGDVEENPGPTSMALPVTALLLPLALLLHAARPQIVLTQSPATLSASPGEKATMTCSASSGVNYMHWYQQKPGTSPKRWIYDTDKTASGVPARFSGSGSGTSYSLTISSMEAEDAATYYCHQRGSYTFGGGTKLEIKGGGGSGGGGSGGGGSQVQLEQPGAEVVKPGASVKVSCKTSGYTFTSNWMHWVKQTPGKGLEWIGEIDPSDSYTNYNQKFDGKAKLTVDKSSSTAYMEVSDLTAEDSATYYCARGSNPYYYAMDYWGQGTSVTVSSTREQKLISEEDGSGIQNPDPAVYQLRDSKSSDKSVCLFTDFDSQTNVSQSKDSDVYITDKCVLDMRSMDFKSNSAVAWSNKSDFACANAFNNSIIPEDTFFPSSDVPCDVKLVEKSFETDTNLNFQNLSVIGFRILLLKVAGFNLLMTLRLWSSRAKRSGSGVKQTLNFDLLKLAGDVESNPGPSRGHMTEYKPTVRLATRDDVPRAVRTLAAAFADYPATRHTVDPDRHIERVTELQELFLTRVGLDIGKVWVADDGAAVAVWTTPESVEAGAVFAEIGPRMAELSGSRLAAQQQMEGLLAPHRPKEPAWFLATVGVSPDHQGKGLGSAVVLPGVEAAERAGVPAFLETSAPRNLPFYERLGFTVTADVEVPEGPRTWCMTRKPGA
For B2, the “NFAT-GFP ASSAY Positive Cell lines: NALM6” value is recorded as “(+/−)” and the “NFAT-GFP ASSAY Positive Cell lines: RAJI” value was “RAJI (+), NALM6”.

B3: 110217-A03 (protein)
chain: MALPVTALLLPLALLLHAARPDVVMTQSPSSLSASVGDRVTITCRASQDISKYLNWYQQKPGKAPKLLIYHTSRLHSGVPSRFSGSGSGTDFTLTISSLQPEDFATYYCQQGNTLPYTFGGGTKVEIKLEDLKNVFPPEVAVFCPSEAEISHTQKATLVCLATGFYPDHVELSWWVNGKEVHSGVSTDPQPLKEQPALNDSRYCLSSRLRVSATFWQNPRNHFRCQVQFYGLSENDEWTQDRAKPVTQIVSAEAWGRADCGFTSESYQQGVLSATILYEILLGKATLYAVLVSALVLMAMVKRKDSRGRAKRSGSGATNFSLLKQAGDVEENPGPTSMDWIWRILFLVGAATGAHSFEQVQLQESGPGLVKPSQTLSLTCTVSGVSLPDYGVSWIRQPPGKGLEWIGVIWGSETTYYNSALKSRVLISVDTSKNQVSLKLSSVTAADTAVYYCARHYYYGGSYAMDYWGQGTTVTVSSTRIQNPDPAVYQLRDCKSSDKSVCLFTDFDSQTNVSQSKDSDVYITDKTVLDMRSMDFKSNSAVAWSNKSDFACANAFNNSIIPEDTFFPSPESSCDVKLVEKSFETDTNLNFQNLSVIGFRILLLKVAGFNLLMTLRLWSS
As to B3, the “NFAT-GFP ASSAY Positive Cell lines: NALM6” value is given as “(+/−)” and the “NFAT-GFP ASSAY Positive Cell lines: RAJI” value is on record as “RAJI (+/−), NALM6”.

B4: 032216-C04 (protein)
chain: MALPVTALLLPLALLLHAARPDIVLTQSPATLSLSPGDRATISCRASESVTILGSHLIYWYQQKPGQPPRLLIQLASNVQTGVPARFSGSGSRTDFTLTISSVEPEDFAVYYCLQSRTIPRTFGQGTKLEIKRLEGKPIPNPLLGLDSTGSGEDLKNVFPPEVAVFEPSKAEIAHTQKATLVCLATGFYPDHVELSWWVNGKEVHSGVCTDPQPLKEQPALNDSRYCLSSRLRVSATFWQNPRNHFRCQVQFYGLSENDEWTQDRAKPVTQIVSAEAWGRADCGITSASYHQGVLSATILYEILLGKATLYAVLVSALVLMAMVKRKDSRGRAKRSGSGATNFSLLKQAGDVEENPGPTSMDWIWRILFLVGAATGAHSFEQVQLVQSGPEVKKPGESVKISCKASGYTFRHYSMNWVKQAPGQGLKWMGRINTESGVPIYADDFKGRFSFTVDTSASTAYLEISSLTSEDTAVYFCSNDYLYSLDFWGQGTTLTVSSTREQKLISEEDGSGIQNPDPAVYQLRDSKSSDKSVCLFTDFDSQTNVSQSKDSDVYITDKCVLDMRSMDFKSNSAVAWSNKSDFACANAFNNSIIPEDTFFPSSDVPCDVKLVEKSFETDTNLNFQNLSVIGFRILLLKVAGFNLLMTLRLWSSRAKRSGSGVKQTLNFDLLKLAGDVESNPGPSRGHMTEYKPTVRLATRDDVPRAVRTLAAAFADYPATRHTVDPDRHIERVTELQELFLTRVGLDIGKVWVADDGAAVAVWTTPESVEAGAVFAEIGPRMAELSGSRLAAQQQMEGLLAPHRPKEPAWFLATVGVSPDHQGKGLGSAVVLPGVEAAERAGVPAFLETSAPRNLPFYERLGFTVTADVEVPEGPRTWCMTRKPGA
modifications: Polynucleotide encoding a Synthetic Immune Receptor (SIR)
With B4, the “NFAT-GFP ASSAY Positive Cell lines: RAJI” value is 2+.

B5: 070517-H02 (protein)
chain: MALPVTALLLPLALLLHAARPLEGKPIPNPLLGLDSTGSGEDLKNVFPPEVAVFEPSKAEIAHTQKATLVCLATGFYPDHVELSWWVNGKEVHSGVCTDPQPLKEQPALNDSRYCLSSRLRVSATFWQNPRNHFRCQVQFYGLSENDEWTQDRAKPVTQIVSAEAWGRADCGITSASYHQGVLSATILYEILLGKATLYAVLVSALVLMAMVKRKDSRGRAKRSGSGATNFSLLKQAGDVEENPGPTSMALPVTALLLPLALLLHAARPDIQMTQSPSSLSASVGDRVTITCKASDHINNWLAWYQQKPGQAPKLLIYGATTLETGVPSRFSGSGSGTDYTLTISSLQPEDFATYYCQQSWNTPWTFGQGTKLEIKRGGGGSGGGGSGGGGSQVQLQQPGAELVKPGASVKMSCKASGYAFSSYWINWMKQKPGQGLEWIGQIYPGDGDTNYNGKFKGRATLTADTSSSTAYMQLSSLTSEDSAVYFCARSITTVVGCAMDYWGQGTSVTVSSTREQKLISEEDGSGIQNPDPAVYQLRDSKSSDKSVCLFTDFDSQTNVSQSKDSDVYITDKCVLDMRSMDFKSNSAVAWSNKSDFACANAFNNSIIPEDTFFPSSDVPCDVKLVEKSFETDTNLNFQNLSVIGFRILLLKVAGFNLLMTLRLWSSRAKRSGSGVKQTLNFDLLKLAGDVESNPGPSRGHMTEYKPTVRLATRDDVPRAVRTLAAAFADYPATRHTVDPDRHIERVTELQELFLTRVGLDIGKVWVADDGAAVAVWTTPESVEAGAVFAEIGPRMAELSGSRLAAQQQMEGLLAPHRPKEPAWFLATVGVSPDHQGKGLGSAVVLPGVEAAERAGVPAFLETSAPRNLPFYERLGFTVTADVEVPEGPRTWCMTRKPGA
B5: the “NFAT-GFP ASSAY Positive Cell lines: NALM6” value is recorded as “(+)” and the “NFAT-GFP ASSAY Positive Cell lines: RAJI” value is “RAJI (2+), NALM6”.

B6: 022817-K08 (protein)
chain: MALPVTALLLPLALLLHAARPQIVLTQSPATLSASPGEKATMTCSASSGVNYMHWYQQKPGTSPKRWIYDTDKTASGVPARFSGSGSGTSYSLTISSMEAEDAATYYCHQRGSYTFGGGTKLEIKLEEQKLISEEDLGSGEDLKNVFPPEVAVFEPSKAEIAHTQKATLVCLATGFYPDHVELSWWVNGKEVHSGVCTDPQPLKEQPALNDSRYCLSSRLRVSATFWQNPRNHFRCQVQFYGLSENDEWTQDRAKPVTQIVSAEAWGRADCGITSASYHQGVLSATILYEILLGKATLYAVLVSALVLMAMVKRKDSRGRAKRSGSGATNFSLLKQAGDVEENPGPTSMDWIWRILFLVGAATGAHSFEQVQLEQPGAEVVKPGASVKVSCKTSGYTFTSNWMHWVKQTPGKGLEWIGEIDPSDSYTNYNQKFDGKAKLTVDKSSSTAYMEVSDLTAEDSATYYCARGSNPYYYAMDYWGQGTSVTVSSTREQKLISEEDLGSGIQNPDPAVYQLRDSKSSDKSVCLFTDFDSQTNVSQSKDSDVYITDKCVLDMRSMDFKSNSAVAWSNKSDFACANAFNNSIIPEDTFFPSSDVPCDVKLVEKSFETDTNLNFQNLSVIGFRILLLKVAGFNLLMTLRLWSSRAKRSGSGVKQTLNFDLLKLAGDVESNPGPSRGHMTEYKPTVRLATRDDVPRAVRTLAAAFADYPATRHTVDPDRHIERVTELQELFLTRVGLDIGKVWVADDGAAVAVWTTPESVEAGAVFAEIGPRMAELSGSRLAAQQQMEGLLAPHRPKEPAWFLATVGVSPDHQGKGLGSAVVLPGVEAAERAGVPAFLETSAPRNLPFYERLGFTVTADVEVPEGPRTWCMTRKPGA
Consider B6, for which the “NFAT-GFP ASSAY Positive Cell lines: NALM6” value was “(+/−)” and the “NFAT-GFP ASSAY Positive Cell lines: RAJI” value is listed as “RAJI (+), NALM6”.
